The target of test [1] is biotin-labeled YxxQ diheptad peptide (human) (UniProt Q96PK6). As to the kind of experiment: ELISA. Conditions: domain or fragment.
Test [2] concerns the target CoAA YxxQ repeats, 307-545 (UniProt Q96PK6). As to the kind of experiment: plate-coated GST-YxxQ, biotin peptide, streptavidin-HRP. The settings on record: reference: unphosphorylated CTD peptide.

In general, EC50 refers to the midpoint of the concentration-response curve.

CoAA YxxQ repeats, 307-545, sequence (Q96PK6 whole entry, looked up, tested part not stated): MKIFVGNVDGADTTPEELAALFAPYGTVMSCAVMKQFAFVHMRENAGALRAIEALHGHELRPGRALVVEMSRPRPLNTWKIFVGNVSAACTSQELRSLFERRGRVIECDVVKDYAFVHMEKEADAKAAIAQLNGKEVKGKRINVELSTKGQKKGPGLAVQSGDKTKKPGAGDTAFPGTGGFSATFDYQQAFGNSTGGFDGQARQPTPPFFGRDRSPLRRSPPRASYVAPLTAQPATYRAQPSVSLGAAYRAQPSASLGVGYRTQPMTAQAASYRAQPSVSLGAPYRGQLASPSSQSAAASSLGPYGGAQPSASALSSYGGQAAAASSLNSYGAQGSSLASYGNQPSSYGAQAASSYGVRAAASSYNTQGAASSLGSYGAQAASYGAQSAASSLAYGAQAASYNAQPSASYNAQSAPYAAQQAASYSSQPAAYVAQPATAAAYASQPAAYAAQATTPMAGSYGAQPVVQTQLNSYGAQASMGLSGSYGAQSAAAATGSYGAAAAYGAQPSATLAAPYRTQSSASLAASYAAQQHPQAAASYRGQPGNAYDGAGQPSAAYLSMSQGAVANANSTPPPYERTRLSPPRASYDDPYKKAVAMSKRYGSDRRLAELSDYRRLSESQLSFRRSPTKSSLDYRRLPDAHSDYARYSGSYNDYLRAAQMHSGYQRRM
GST-CTD-AA (not phosphorylated, coated on plate), sequence (P04050 whole entry, looked up): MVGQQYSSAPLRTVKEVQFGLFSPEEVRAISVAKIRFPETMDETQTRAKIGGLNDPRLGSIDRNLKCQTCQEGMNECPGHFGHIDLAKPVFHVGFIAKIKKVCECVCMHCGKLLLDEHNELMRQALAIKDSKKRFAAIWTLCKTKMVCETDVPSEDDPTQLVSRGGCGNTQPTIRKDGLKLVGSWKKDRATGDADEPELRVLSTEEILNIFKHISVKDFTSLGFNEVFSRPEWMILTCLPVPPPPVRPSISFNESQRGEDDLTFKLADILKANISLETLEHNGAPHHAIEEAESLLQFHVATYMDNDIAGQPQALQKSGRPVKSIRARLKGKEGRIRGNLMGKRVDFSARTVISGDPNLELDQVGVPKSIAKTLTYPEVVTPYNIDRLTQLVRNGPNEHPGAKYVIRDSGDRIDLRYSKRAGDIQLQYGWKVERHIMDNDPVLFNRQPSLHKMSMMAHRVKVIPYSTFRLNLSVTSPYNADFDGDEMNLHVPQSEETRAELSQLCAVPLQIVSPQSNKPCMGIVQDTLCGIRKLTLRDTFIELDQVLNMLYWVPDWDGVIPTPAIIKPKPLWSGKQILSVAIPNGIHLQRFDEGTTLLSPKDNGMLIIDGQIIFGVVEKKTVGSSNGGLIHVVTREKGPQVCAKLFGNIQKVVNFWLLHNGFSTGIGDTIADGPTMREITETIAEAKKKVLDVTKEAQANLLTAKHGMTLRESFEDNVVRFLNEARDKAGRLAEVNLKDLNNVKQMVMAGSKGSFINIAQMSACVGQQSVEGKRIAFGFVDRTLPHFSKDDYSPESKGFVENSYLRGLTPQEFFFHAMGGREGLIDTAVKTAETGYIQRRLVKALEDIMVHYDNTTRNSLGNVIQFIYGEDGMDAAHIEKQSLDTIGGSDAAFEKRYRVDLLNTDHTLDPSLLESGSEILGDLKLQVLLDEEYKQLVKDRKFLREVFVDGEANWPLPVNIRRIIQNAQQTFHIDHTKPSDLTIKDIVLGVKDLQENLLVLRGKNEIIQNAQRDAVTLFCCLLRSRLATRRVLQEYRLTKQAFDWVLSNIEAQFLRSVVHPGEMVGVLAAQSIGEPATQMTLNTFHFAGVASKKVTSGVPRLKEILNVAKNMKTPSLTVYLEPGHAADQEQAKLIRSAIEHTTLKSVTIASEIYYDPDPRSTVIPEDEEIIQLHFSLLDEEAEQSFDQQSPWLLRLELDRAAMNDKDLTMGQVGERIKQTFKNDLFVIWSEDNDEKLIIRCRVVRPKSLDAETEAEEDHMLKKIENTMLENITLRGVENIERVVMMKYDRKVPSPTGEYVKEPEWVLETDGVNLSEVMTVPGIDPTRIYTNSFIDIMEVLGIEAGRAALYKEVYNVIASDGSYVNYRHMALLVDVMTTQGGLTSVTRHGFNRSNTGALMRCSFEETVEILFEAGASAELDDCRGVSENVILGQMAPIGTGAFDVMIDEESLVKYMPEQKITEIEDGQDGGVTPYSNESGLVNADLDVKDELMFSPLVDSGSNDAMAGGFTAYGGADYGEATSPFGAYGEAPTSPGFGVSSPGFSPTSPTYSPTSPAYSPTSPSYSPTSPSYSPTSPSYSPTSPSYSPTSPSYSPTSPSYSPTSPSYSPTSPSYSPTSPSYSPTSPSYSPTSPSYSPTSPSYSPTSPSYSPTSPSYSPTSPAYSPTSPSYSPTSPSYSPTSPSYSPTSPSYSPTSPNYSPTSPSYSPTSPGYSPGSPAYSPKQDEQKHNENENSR

“GST-CTD-AA (not phosphorylated, coated on plate) (from UniProt P04050)” showed an EC50 in test [1] of 2430 nM. As to “RNA polymerase II largest subunit CTD pSer2 CTD peptide”, the EC50 entry in test [2] (sites S2) is given as “stronger; reference 1066”.

In the case of “RNA polymerase II largest subunit CTD pSer5 CTD peptide”, in test [2] (sites S5), the EC50 entry was “stronger; reference 1066”.

These data come from article doi:10.1101/671156.
